How the values were obtained:
[1] = system: T1, dBN(64-56) FVIII derivative
T1 sequence: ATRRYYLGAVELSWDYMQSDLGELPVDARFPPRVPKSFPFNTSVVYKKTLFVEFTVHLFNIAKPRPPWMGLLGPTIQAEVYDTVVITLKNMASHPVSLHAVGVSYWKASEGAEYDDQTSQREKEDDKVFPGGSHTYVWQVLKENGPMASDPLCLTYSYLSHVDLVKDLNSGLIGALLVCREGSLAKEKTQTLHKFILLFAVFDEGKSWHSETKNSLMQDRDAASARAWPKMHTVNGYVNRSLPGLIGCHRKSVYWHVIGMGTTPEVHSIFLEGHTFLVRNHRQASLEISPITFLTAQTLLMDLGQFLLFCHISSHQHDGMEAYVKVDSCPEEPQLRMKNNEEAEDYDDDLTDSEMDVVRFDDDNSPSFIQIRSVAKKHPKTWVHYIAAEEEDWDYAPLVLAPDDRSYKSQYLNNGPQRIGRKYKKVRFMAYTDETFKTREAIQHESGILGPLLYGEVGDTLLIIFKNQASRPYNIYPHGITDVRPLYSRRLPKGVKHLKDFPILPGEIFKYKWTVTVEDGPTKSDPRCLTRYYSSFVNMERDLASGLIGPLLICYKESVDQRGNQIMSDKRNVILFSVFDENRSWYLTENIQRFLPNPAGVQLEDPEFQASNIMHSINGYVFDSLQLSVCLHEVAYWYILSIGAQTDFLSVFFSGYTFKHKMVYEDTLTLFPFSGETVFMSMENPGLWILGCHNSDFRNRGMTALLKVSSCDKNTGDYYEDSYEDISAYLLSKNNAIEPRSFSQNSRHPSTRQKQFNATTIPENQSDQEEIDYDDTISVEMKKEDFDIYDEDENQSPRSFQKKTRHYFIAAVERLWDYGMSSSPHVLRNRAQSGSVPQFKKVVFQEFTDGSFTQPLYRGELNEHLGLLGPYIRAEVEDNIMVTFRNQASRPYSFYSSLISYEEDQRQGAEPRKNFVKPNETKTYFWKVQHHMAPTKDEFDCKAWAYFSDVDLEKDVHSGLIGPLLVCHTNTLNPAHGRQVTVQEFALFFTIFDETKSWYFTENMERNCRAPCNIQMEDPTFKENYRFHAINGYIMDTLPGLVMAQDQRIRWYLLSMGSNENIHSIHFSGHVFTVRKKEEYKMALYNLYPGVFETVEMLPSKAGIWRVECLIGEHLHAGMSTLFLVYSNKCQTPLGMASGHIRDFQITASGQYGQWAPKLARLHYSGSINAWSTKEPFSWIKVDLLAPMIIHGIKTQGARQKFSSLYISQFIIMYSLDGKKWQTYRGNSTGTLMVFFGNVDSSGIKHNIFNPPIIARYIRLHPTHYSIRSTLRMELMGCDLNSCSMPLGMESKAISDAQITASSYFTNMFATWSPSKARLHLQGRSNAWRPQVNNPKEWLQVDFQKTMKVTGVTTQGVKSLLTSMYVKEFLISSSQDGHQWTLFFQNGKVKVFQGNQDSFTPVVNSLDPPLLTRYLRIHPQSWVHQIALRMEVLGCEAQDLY

[2] = system: T2, dBN(64-53) FVIII derivative
T2 sequence: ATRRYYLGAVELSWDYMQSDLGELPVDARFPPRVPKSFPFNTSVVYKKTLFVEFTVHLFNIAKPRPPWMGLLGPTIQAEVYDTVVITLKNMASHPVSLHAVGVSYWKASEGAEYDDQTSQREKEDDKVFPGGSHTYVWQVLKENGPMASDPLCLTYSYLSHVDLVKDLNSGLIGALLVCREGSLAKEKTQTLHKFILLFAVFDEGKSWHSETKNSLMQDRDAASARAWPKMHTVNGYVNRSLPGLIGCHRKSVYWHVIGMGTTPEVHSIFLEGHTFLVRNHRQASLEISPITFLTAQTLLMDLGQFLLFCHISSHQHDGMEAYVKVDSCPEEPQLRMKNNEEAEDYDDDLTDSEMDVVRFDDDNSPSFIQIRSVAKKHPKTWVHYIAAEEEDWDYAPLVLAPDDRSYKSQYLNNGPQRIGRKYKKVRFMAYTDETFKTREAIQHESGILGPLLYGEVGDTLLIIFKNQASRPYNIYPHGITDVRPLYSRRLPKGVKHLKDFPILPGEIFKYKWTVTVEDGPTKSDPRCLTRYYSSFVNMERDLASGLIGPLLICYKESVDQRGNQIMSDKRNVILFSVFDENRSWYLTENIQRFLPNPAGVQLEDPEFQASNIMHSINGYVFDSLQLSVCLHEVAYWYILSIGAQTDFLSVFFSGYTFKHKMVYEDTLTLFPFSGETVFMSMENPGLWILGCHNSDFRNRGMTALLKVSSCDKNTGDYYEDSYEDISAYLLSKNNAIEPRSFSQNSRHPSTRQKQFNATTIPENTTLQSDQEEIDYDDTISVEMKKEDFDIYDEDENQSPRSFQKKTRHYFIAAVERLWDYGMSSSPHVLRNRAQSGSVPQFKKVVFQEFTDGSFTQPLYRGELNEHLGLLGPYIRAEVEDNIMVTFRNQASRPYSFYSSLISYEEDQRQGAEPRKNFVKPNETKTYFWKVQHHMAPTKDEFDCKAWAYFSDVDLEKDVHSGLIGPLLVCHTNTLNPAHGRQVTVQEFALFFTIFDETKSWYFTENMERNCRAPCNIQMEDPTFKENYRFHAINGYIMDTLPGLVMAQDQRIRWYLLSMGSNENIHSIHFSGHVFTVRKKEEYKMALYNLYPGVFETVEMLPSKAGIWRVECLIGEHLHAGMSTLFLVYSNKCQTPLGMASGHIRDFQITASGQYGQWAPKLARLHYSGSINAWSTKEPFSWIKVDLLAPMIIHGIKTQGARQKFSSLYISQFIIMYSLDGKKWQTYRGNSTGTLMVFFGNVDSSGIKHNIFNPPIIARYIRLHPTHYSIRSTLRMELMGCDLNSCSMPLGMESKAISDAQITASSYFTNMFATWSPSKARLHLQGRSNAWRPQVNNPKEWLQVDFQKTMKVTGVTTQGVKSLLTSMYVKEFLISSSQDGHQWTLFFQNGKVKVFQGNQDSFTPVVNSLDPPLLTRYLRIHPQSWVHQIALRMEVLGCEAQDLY

Some FVIII derivatives = experiment: cell-based or functional assay

| activation by thrombin, measured in a classical coagulation test (APTT) (Some FVIII derivatives) [fold] | Substance | activation by thrombin, measured in a classical coagulation test (APTT) [1] | activation by thrombin, measured in a classical coagulation test (APTT) [2] | thrombin cleavage of 35S-labeled immunoprecipitated protein, SDS-PAGE (FVIII derivatives) |
| --- | --- | --- | --- | --- |
| – | thrombin | are activated in the same manner as rh FVIII | are activated in the same manner as rh FVIII | Analysis of the radiolabeled protein after thrombin digestion indicated a normal appearance of the 73 kD, and 50 and 40 kd fragments |
| 7 | thrombin (enzyme) | – | – | – |

Reference: patent US20040147436A1
